Data as given in US6689868 (Dana-Farber, dated 2004).

Key:
[1] = molecular target: SHPTP1 (endogenous, activated human T cells) (human, UniProt P29350 1-595, limits assumed); experiment: co-immunoprecipitation with 8C93D8 from activated human T cell lysates, Western blot
Description: (§1) To identify the protein tyrosine phosphatase associated with CD2BP1, activated human T cells were disrupted in lysis buffer at 30 ×10^6/ml and the supernatant collected as described above. After preclearing with control beads (CNBr activated beads linked to nonspecific mouse IgG at 5 mg/ml, Sigma) overnight, the supernatant was diluted to 10 ×10^6 cells/ml in lysis buffer containing 0.1% bovine serum albumin (BSA). CD2BP1 and any associated molecules were immunoprecipitated by incubation at 4° C. for 3 h with CNBr beads coupled to either anti-CD2BP1 mAb 8C93D8 or, as a control, nonspecific mouse IgG. After two washes in lysis buffer and one wash in TBS, the immunocomplexes on the beads were eluted by heating at 65° C. for 20 min in SDS sample buffer and subjected to 12.5% reducing SDS-PAGE. After electrophoresis, proteins on the gel were transferred to nitrocellulose for Western blotting. The membranes were then probed with different primary antibodies: rabbit anti-human PTP-PEST (CSH8) 1:1000 (Garton and Tonks, 1994), rabbit anti-human FLP (aEN12) 1:1000 (Dosil et al., 1996), goat anti-human SHPTP1 (Santa Cruz) 1:100, rabbit antihuman SHPTP2 (Santa Cruz) 1:100, followed by washing and incubation with the secondary HRPO-conjugated goat anti-rabbit antibody (1:5000) or donkey anti-goat antibody (Santa Cruz) 1:2000, and signals developed by ECL. […]

[2] = molecular target: T1, SHPTP2 (endogenous, activated human T cells) (human, UniProt Q06124 2-593); experiment: as above
T1 sequence (looked up): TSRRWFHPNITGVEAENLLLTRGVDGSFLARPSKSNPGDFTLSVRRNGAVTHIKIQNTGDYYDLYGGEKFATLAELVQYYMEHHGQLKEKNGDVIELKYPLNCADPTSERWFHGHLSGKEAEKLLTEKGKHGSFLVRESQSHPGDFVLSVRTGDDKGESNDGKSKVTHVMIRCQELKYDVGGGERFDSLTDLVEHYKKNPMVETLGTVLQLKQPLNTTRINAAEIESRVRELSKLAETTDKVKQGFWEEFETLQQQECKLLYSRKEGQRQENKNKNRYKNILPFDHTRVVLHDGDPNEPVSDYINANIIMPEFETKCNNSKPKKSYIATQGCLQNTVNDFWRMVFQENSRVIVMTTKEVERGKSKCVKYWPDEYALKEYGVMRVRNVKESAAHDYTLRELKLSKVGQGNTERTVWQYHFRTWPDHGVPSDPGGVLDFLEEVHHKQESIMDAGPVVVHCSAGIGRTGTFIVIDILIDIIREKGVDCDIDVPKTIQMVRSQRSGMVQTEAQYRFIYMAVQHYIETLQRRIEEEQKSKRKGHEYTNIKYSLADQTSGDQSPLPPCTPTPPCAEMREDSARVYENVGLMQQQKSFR
Description: as §1

[3] = molecular target: T2, human CD2 (wild-type, full length) (human, UniProt P06729 25-351); experiment: cell-cell conjugates of activated human T cells with CD58-transfected CHO cells, immunofluorescence
T2 construct: whole, on cells; In pull-downs and immunoprecipitations it stood in Triton X-100 cell lysates; in staining and rosetting on the cell surface; also called wtCD2; hCD2wt (W33)
T2 sequence (looked up): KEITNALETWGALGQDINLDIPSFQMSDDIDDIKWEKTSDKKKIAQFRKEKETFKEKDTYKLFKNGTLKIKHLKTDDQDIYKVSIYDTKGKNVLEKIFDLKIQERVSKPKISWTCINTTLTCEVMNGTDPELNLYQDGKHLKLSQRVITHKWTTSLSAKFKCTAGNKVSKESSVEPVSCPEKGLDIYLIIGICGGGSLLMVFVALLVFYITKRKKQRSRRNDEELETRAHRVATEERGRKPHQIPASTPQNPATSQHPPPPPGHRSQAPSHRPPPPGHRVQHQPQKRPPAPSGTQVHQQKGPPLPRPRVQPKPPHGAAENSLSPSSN
Description: For image analysis of the CD2BP1 association with CD2, CD2 molecules on the activated T cell surface were induced to cluster by either a pair of anti-CD2 antibodies (anti-T11_2 plus anti-T11_3) or by CD58 ligand directed CD2 relocalization. For antibody crosslinking, activated T cells were incubated with anti-T11_2 mAb (5 μg/ml) and direct Texas red labeled anti-T11_3 mAb (1:50) in FACS buffer at 4° C. for 30 min, followed by two washes with FACS buffer and fixation by incubation in 2% paraformaldehyde/PBS. The cells were then permeabilized and stained with directly FITC-labeled anti-CD2BP1 mAb, followed by fluoroimaging analysis as described above. For ligand induced surface CD2 relocalization, activated T cells were incubated with CD58 transfected CHO cells prebound to coverslips to induce cellular conjugate formation as described previously (Li et al., 1996). After washing off the non-conjugated T cells and fixation in 1% parafornaldehyde, the conjugates were stained with anti-T11_3 antibody (1:50) at 4° C. for 30 min, followed by washing, permeabilization and staining with anti-CD2BP1 antibody as described above. The stained conjugates on the coverslips were then subject to fluoroimaging analysis. […]

[4] = molecular target: T3, LexA-CD2 tail truncation construct M (human, UniProt P0A7C2 1-202; P06729 245-311, limits assumed); experiment: yeast two-hybrid, lacZ induction
T3 sequence (looked up): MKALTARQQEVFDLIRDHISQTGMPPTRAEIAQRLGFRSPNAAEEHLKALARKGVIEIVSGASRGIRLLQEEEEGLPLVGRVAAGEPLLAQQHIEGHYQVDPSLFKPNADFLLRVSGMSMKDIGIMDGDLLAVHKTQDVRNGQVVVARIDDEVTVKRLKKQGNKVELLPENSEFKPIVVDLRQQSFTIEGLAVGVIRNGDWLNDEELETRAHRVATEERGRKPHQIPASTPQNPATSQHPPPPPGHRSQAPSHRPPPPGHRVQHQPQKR
Description: (§2) These tail variants were tested in the yeast two-hybrid system for their interaction with CD2BP1L or CD2BP1S as well as CD2BP1 truncations. In FIG. 7, open bars represent the region of CD2BP1 sequence with homology to yeast cdc15 protein aa 116–277; solid bars represent PEST rich regions in the CD2BP1 sequences; and hatched bars represent the SH3 domain in the CD2BP1 sequences. CD2BP1S/ΔSH3 represents CD2BP1 lacking the SH3 domain. $SH334$ includes the entire SH3 domain of CD2BP1 and 34 N-terminal amino acids. $SH366$ includes the SH3 domain of CD2BP1S and 66 N-terminal amino acids. $SH383$ includes the SH3 domain of CD2BP1L and 83 N-terminal amino acids of CD2BP1L. SH^3GGGGS includes the entire SH3 domain of CD2BP1 and an artificial N-terminal linker consisting of the residues shown.
(§3) The strength of the interaction between the CD2 variants and the CD2BP1 constructs was determined by lacZ induction.

[5] = molecular target: T4, LexA-CD2 tail truncation construct N (human, UniProt P0A7C2 1-202; P06729 245-294, limits assumed); experiment: yeast two-hybrid, lacZ induction
T4 sequence (looked up): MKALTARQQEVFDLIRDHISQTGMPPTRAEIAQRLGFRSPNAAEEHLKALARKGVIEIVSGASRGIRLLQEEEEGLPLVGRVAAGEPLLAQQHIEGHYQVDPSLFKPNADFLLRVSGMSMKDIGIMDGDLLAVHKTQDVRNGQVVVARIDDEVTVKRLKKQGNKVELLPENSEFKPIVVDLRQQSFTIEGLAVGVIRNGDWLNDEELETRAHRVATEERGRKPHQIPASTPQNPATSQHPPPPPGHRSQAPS
Description: as §2, §3

Sequence of SHPTP1 (endogenous, activated human T cells) (P29350 whole entry): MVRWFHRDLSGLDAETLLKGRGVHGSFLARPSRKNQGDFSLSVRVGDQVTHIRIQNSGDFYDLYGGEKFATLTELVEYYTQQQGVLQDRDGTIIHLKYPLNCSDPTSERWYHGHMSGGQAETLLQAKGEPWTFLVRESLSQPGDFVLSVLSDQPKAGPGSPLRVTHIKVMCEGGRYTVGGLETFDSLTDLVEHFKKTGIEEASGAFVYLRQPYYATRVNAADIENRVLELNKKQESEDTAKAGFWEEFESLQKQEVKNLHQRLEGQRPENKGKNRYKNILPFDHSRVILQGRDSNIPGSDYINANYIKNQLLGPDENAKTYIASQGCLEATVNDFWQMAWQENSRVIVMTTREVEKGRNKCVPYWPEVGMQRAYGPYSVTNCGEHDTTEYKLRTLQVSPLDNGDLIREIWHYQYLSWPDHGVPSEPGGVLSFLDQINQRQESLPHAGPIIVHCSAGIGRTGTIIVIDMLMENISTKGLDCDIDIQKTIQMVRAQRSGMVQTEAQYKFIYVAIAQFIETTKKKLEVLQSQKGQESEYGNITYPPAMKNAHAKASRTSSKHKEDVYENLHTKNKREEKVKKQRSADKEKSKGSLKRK

B1: CD2BP1 protein (endogenous, activated human T cells) (other)
chain: MMPQLQFKDAFWCRDFTAHTGYEVLLQRLLDGRKMCKDMEELLRQRAQAEERYGKELVQIARKAGGQTEINSLRASFDSLKQQMENVGSSHIQLALTLREELRSLEEFRERQKEQRKKYEAVMDRVQKSKLSLYKKAMESKKTYEQKCRDADDAEQAFERISANGHQKQVEKSQNKARQCKDSATEAERVYRQSIAQLEKVRAEWEQEHRTTCEAFQLQEFDRLTILRNALWVHSNQLSMQCVKDDELYEEVRLTLEGCSIDADIDSFIQAKSTGTEPPAPVPYQNYYDREVTPLTSSPGIQPSCGMIKRFSGLLHGSPKTTSLAASAASTETLTPTPERNEGVYTAIAVQEIQGNPASPAQEYRALYDYTAQNPDELDLSAGDILEVILEGEDGWWTVERNGQRGFVPGSYLEKL
notes: Endogenous protein
binding result [1]: no binding
binding result [2]: no binding

B2: human CD58 (on transfected CHO cells) (ligand, UniProt P19256 29-250, looked up)
chain: FSQQIYGVVYGNVTFHVPSNVPLKEVLWKKQKDKVAELENSEFRAFSSFKNRVYLDTVSGSLTIYNLTSSDEDEYEMESPNITDTMKFFLYVLESLPSPTLTCALTNGSIEVQCMIPEHYNSHRGLIMYSWDCPMEQCKRNSTSIYFKMENDLPQKIQCTLSNPLFNTTSSIILTTCIPSSGHSRHRYALIPIPLAVITTCIVLYMNGILKCDRKPDRTNSN
notes: whole, on cells; also called CD58 ligand; human CD58-transfected CHO cells
binding result [3]: binds

B3: B42-SH334 (SH3 domain of CD2BP1 plus 34 N-terminal amino acids) (other, not shown: large carriers)
chain: ASAASTETLTPTPERNEGVYTAIAVQEIQGNPASPAQEYRALYDYTAQNPDELDLSAGDILEVILEGEDGWWTVERNGQRGFVPGSYLEKL
binding result [4]: no binding
binding result [5]: no binding
